Measurements: PMC4477667

Biological target: Deinococcus radiodurans RNase J, wild type, full-length (residues 1-559) (Deinococcus radiodurans)
Experiment: SEC

Deinococcus radiodurans RNase J, wild type, full-length (residues 1-559) (enzyme)
stoichiometry N: 2
